B1: r16_88_TrROS_Hall (parent)
chain: EVIELKIKFKTPEQREKLKEIAKKLNAEVVEEKDGEVIIRFKTPEQAERALKEAEKLGAEVEL

Variants of: B1
Experiment: folding stability dG (cDNA display proteolysis); higher = more stable
Conditions: PBS, room temperature

Variant	folding stability dG [kcal/mol]
P12T	4.57
P12Y	4.91
P12D	4.2
P12E	4.46
P12W	4.88
G35V	4.35
G35D	4.1
G35A	4.5
A54G	4.09
A54C	4.41
A54H	3.5
A54E	3.03
A54Y	4.16
A54D	2.86
A54T	4.19
A54K	3.51
E32D	4.39
E32F	4.57
E32Y	4.65
E32A	4.34
G58F	4.24
G58W	4.21
G58C	4.28
G58D	4.42

Variant	folding stability dG [kcal/mol]
I7S	3.87
I7P	2.3
I7R	3.04
I7E	2.11
I7N	2.98
I7C	4.31
I7K	2.77
E62F	4.25
E62G	4.46
E62H	4.37
E62K	4.17
E62N	4.53
E62T	4.4
E62I	4.35
K52R	4.45
K52Q	4.1
K52S	4.28
L18R	2.12
L18H	3.49
L18A	4.39
L18E	1.57
E53C	4.4
E53N	3.87
E53M	4.39

Variant	folding stability dG [kcal/mol]
E53D	4.34
E53G	4.07
E53V	4.36
E53H	4.17
E16I	4.38
E16M	4.6
E16S	4.44
E16Q	4.43
E16F	4.73
A50H	3.68
A50T	4.26
A50K	2.55
A50N	3.58
E31P	4.06
E31C	4.51
E31K	4.34
E31L	4.62
E31M	4.37
E31A	4.29
E31H	4.63
I39L	4.67
I39E	2.69
I39P	0.941
I39Y	5

Variant	folding stability dG [kcal/mol]
E20M	4.79
E20R	4.59
E20C	4.51
E20I	4.45
Q46T	4.25
Q46H	4.23
Q46R	4
Q46M	4.15
Q46D	4.37
Q46I	4.15
R15K	4.13
R15C	4.31
R15I	4.37
E45D	4.22
E45N	4.39
E45F	4.44
E45V	4.24
E45G	4.38
E4F	4.76
E4G	4.3
E4V	4.58
E4L	4.56
E4P	4.4
E4H	4.42

Variant	folding stability dG [kcal/mol]
E4I	4.54
E4R	4.58
E4W	4.66
L5S	3.94
L5K	4.38
L5A	4.37
L5M	4.49
K8Y	4.61
K8C	4.15
K8H	4.25
K8S	4.1
K8F	4.53
K8R	4.62
F41P	3.46
F41Q	2.23
F41H	3.13
F41N	3.33
V37E	3.36
V37Y	4.14
V37D	3.02
V37N	3.52
V37C	4.19
V37F	4.55
V37K	3.31

Variant	folding stability dG [kcal/mol]
V37Q	4.07
V29I	4.3
V29L	4.2
V29Y	4.55
K42R	4.62
K42S	4.23
K42V	4.19
K42T	4.13
I21K	3.78
I21R	3.62
I21Y	4.78
I21V	4.33
I21Q	4.06
K24H	4.3
K17N	4.42
K17R	4.51
K17S	4.45
K17F	4.57
K17W	4.61
K17E	4.3
V61S	3.93
V61H	4.39
V61G	4.4
V61I	4.29

Variant	folding stability dG [kcal/mol]
V61R	3.46
V61W	3.96
V2G	4.48
V2S	4.13
V2C	4.51
V2Q	4.45
R49K	4.15
R49P	4.17
R49L	4.53
R49M	4.46
R49T	4.04
R49H	4.4
R49S	4.48
E55W	4.58
E55P	3.67
E55M	4.37
P44D	4.15
P44G	4.37
P44F	4.54
P44C	4.66
N26T	4.41
N26I	4.19
N26Q	4.45
N26F	4.24

Variant	folding stability dG [kcal/mol]
E36F	4.66
E36N	4.24
E36G	4.39
E36Y	4.89
E36A	4.59
E36D	4.49
E36Q	4.67
E36S	4.26
E1G	4.57
E1I	4.29
E1K	4
E1F	4.33
L63K	4.56
L63M	4.23
L63S	4.39
L63I	4.22
K33A	4.37
K33H	4.45
K33D	4.26
K33N	4.32
I38V	4.44
I38H	4.63
I38Y	4.76
I38A	4.26

Variant	folding stability dG [kcal/mol]
I38L	4.25
I38K	3.82
I38R	4.28
I38C	4.3
K6P	3.96
K6L	4.32
K6G	4.02
K6R	4.73
Q14V	4.38
Q14N	4.47
Q14C	4.28
Q14E	3.98
Q14W	4.3
Q14A	4.33
Q14M	4.43
Q14K	4.09
K10A	4.22
K10N	4.22
K10M	4.19
K10Y	4.5
K10W	4.3
K10C	4.2
K10V	4.2
D34H	4.52

Variant	folding stability dG [kcal/mol]
D34L	4.3
D34R	4.23
D34F	4.34
D34K	4.19
D34Q	4.35
D34V	4.4
A47Y	4.79
A47T	4.34
A47M	4.39
A47L	4.65
A47K	4.65
A47E	4.18
A47Q	4.8
A47N	3.68
R40S	4.38
R40D	3.83
R40Y	4.86
R40K	4.27
R40N	4.13
R40V	4.64
T43S	4.53
T43D	3.85
T43Q	4.3
T43P	3.06

Variant	folding stability dG [kcal/mol]
T43I	4.48
T43N	3.86
E13Q	4.57
E13C	4.88
E13H	4.41
L25Y	4.91
L25A	4.05
L25G	4.23
L25N	4.13
L25K	3.82
L25R	4.09
L25W	4.85
L25E	4.25
L25H	4.62
E28V	4.41
E28W	4.53
E28D	4.26
E28M	4.17
E28R	4.37
E28G	4.33
E28P	4.34
A22W	4.68
A22I	4.38
A22H	4.21

Variant	folding stability dG [kcal/mol]
A22G	4.64
A22C	4.17
A22T	4.36
A22Y	4.74
E60H	4.19
E60C	4.27
E60L	4.21
E60G	3.81
E60S	4.28
I3S	4.71
I3Y	4.7
I3N	4.76
I3V	4.58
I3P	4.46
I3H	4.7
E48I	4.17
E48C	4.52
E48T	4.28
E48H	4.52
K19R	4.3
K19C	4.22
K19E	4.12
K19H	4.29
K19G	4.38

Variant	folding stability dG [kcal/mol]
K19A	4.18
F9Y	4.33
F9E	2.48
F9R	2.76
F9Q	3.28
F9W	4.61
F9P	4.02
L51Q	4.53
L51N	4.3
L51F	4.4
L51T	4.76
T11L	4.75
T11V	4.48
T11Q	4.33
T11I	4.59
T11Y	4.02
T11A	4.39
K56V	4.45
K56Q	4.43
A27R	3.72
A27P	4.01
A27V	4.24
A27W	4.42
A27M	4.42

Variant	folding stability dG [kcal/mol]
A27E	3.84
A27S	4.31
A27F	4.4
K23W	4.8
K23H	4.28
K23L	4.53
K23I	4.56
K23E	4.36
A59L	4.62
A59E	4.23
A59T	4.27
A59H	4.43
A59C	4.17
V30W	4.39
V30F	4.61
V30D	4.27
L57K	3.5
L57W	4.6
L57M	4.31
L57T	4.04
L57R	3.57
L57A	4.15
